The text below walks through data of the domain aggregation screens of Martell et al. (2025).
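Also: 20 min heating vs room temperature control held 20 min.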

A short description of this series: soluble fraction after stress (log2 fold change); higher = more stays soluble; pooled small domains, quantitative proteomics. The note with it: stress: 75 degC.
Consider “HMGDTIFINNNFYVKHIVEFGETIDIISKIYDVSVNKILETNETSTKLYSGQSLFIPININV”, for which the “soluble fraction (log2)” value was -3.47.

For the sequence “HMGDTLEIVVIYSNKQKAEEAVNNLKGKFEDLGYNFAIITVDTSKITQLAMESSIQYIEFPKSFYFSD”, the “soluble fraction (log2)” value is -4.25. Then “HMGDVATVKLDNNGLLNMRKSDARGADIVARIPNGTVVQVLNRETEWTQVRYDGKEGYVMSSFLQFAE”, with -0.047; and “HMGDVPESLVEKAGHSINAKIISAWGMTETGASTMTRPQDDPERAIYSDGVVLPLMDVRVVNDAGLA”, with -0.167.

Regarding “HMGDWEKALAQFAAHRLANGSTAFLDEMYPIFERILLQAALNKTGGRKIEAAELLGWGRNTLTRKLKELGF”, the “soluble fraction (log2)” value is -2.2.

For the sequence “HMGDYERVPEYKGKLTSDLTMEDSQKFAFRFIWQNSDEDEGKIIDQDPPAGKSVAKGSEIVLYVSNG”, the “soluble fraction (log2)” value stood at 0.474.

Regarding “HMGEAAIYRINILINNLNVRSGPGTLYPRLRRADFPGEYDIFEEKNGFGRISNTKSEWVSLNTQYVQRLT”, the “soluble fraction (log2)” value is -2.8. Consider “HMGEAIPVPDLKHKALTDAEHLVHELGLEIQVVDTGYVKSLPADYILGQSLAPGEKVKSGHIIYVTINSP”, for which the “soluble fraction (log2)” value was -1.23. Turning to “HMGEGTAVGKALKFLAAQGKKFAPELLDMAGSLTGVEALSKLGDAIKGDPELSELDKRILLAELETDAV”, the “soluble fraction (log2)” value is -0.171. As for “HMGEIHALIPGLVSRLFVKPGDRVENGQGLLILEAMKMENEIDSPISGVVGKIYIKAGDKVEKGELIMEIN”, the figure is -1.45. Take “HMGEIVVPDLIGKSLTEATRILSDSTLTVGKVNYQISSTLLPNTVLDQYPAPGNKLNSGNTVDLFITKE”: the “soluble fraction (log2)” value turned out to be 0.068. Consider “HMGEKTLSEKVYDRLKELIMDGELERGTKITETSIAKMFDVSPTPVREAFRKLASDGLIEVASWKGVIVKG”, for which the “soluble fraction (log2)” value is -0.378. As for “HMGELYGTDQYKDGDAQDTNIGKLLEVNIDGKWQVATTGTSRFEFAGVMDDNGHKLIMISVLPEAKTV”, the “soluble fraction (log2)” value was found to be 0.0596. Then “HMGEPLSPDARALTNVLRHYRGWAEPGELARKSGLGSRERVLTAAQSLVNAGLADIERGMVRPTAALMEVQ”, with 0.0619; and “HMGEPVASSREVAKRFGKEHKHVLAAIRQILVAENSATKFFHETAFEYRGQRFPEYLMNRDGFALLAMGF”, with -3.15. For “HMGEPVNSPMPGTILRVEVTQGAAVKEGQLLVVLEAMKMENEILAPKDGTVAQVVVQKGSHVETGSPLIVL”, the “soluble fraction (log2)” value is -0.508.

As for “HMGEQLALLERARTLLEDETLETEVQKELEMLLEDIEAARAEANATQLEDLFEELADLLFDLE”, the “soluble fraction (log2)” value worked out at 0.316. On to “HMGEQYYVLIDNKQNGPHNINAIQKMIDQNIVNRQTLIWKKGMTDWGNIMDDKDLKEMVNKIP”, for which the “soluble fraction (log2)” value was 0.111. As for “HMGERMELTLDNPREAIPVLDAMGFANYQVVDKEHIHIFERLNESALVNMELAKAGIPVKGISITSE”, the figure is 0.0918. For the sequence “HMGESEWIVKWRGEKRDEERLQESELVRDDPEHRISVVRPRDDVDASAWLNRWRKSRYVQYIQPNHRVTIS”, the “soluble fraction (log2)” value was determined as 0.568. In the case of “HMGESFPYVAYATDSVRLRARPSSSATILTVIRKGDAVLITGADGSYKIVEYEGRKGYVVSAFLSSQET”, the “soluble fraction (log2)” value was -2.51. In the case of “HMGESVQVPSYVGMGFREAARKARARDFGVAVSDSIYVPGKPPGEIIAQDPKAESRVKEGRTIYFTVAK”, the “soluble fraction (log2)” value is -0.109. Take “HMGETAFRYALPLDQGEALKRSHVIRQSISPDDALATRVTVLEDVLDQTLRQPVQAGEVLLEDHFTR”: the “soluble fraction (log2)” value is -0.0825. As to “HMGETRWTYDDFGNILTEKAAPYSATEFLGKTYTYDTDNRYLKTVTDALGRTTTTLSYDKYGNPLSVMD”, the “soluble fraction (log2)” value is 0.115. Consider “HMGETWYEILEISSDATTEEIRQAYFEQARQYHPDTNPGELAREWFYQVQEAYETLSDPDRRRQYDESIKG”, for which the “soluble fraction (log2)” value was -0.0285. As for “HMGEVEVPDLVGIEAIQAKTLLFNSDFLIKEFYDYDPTQPIGVVIRQAPEAGTTQTIGDSVTITINRA”, the “soluble fraction (log2)” value is -0.334.

Take “HMGEVISRSYPLLKTKAKPAEVSEALQKLIKAPATVTFDEKNEVFHINATRLQHTWAEGYFKGLHGK”: the “soluble fraction (log2)” value is -0.14. For the sequence “HMGEVPPGWSVEALAAIERDLAHHVGPVARVLVQRGARLHTTTDDLRSALANAITDDLARRRFMQP”, the “soluble fraction (log2)” value was -0.575. As to “HMGFEALRSRHRITAREMEVLQHMLAGRSNAEIGHTLGLSERTVKTHITSIFNKLGVDSRAQLGYMLK”, the “soluble fraction (log2)” value was -1.87. Then “HMGFLTKTQRLEILLHLKDEPYYNVEKLKELIKNRYGIVYQSSQSYYDLLKEAGLSWHQTQA”, with -2.33.

For the sequence “HMGFVTVTEVDTTADLKLARVYVSVLGPEEQWAKSFTALESARGFVWNWLRKHLDLRVTPQLAF”, the “soluble fraction (log2)” value is -1.08.

“HMGGASVTDQQIRDFVSAHTDDPMAIYKAAVANGISSARLAQVTGISIADIEAFVRKNNLPSF”: the “soluble fraction (log2)” value was -0.0535. Regarding “HMGGEEINMINLVGLSQSEAENQLAKLKLKIGQVTAEYSDKPSGTVLKQSISANNKVKKGADIDIVVSKG”, the “soluble fraction (log2)” value was -0.0126. Regarding “HMGGELLSLRRIGTLTGISYPTLLRYVARYGEQIPQTGTGRSRRFPPAAVPVFQELRATRGRAPRATA”, the “soluble fraction (log2)” value is -0.104. On to “HMGGEPKALLFAGVETREMAEITQRLEAADIPYEIREDGGSIYVARSEVFNARMMLSADGLPS”, for which the “soluble fraction (log2)” value was -0.455. “HMGGFNATTLQNIEELRRSLSDADQFGRHEVIETIGGSDSRAGKLLKKMLEAGIIEQVKGHGKGRYRFKRT”: the “soluble fraction (log2)” value was 0.0983.

As for “HMGGGEYTVAKGDTLWKIAAQTLGSPTRYAEIYNLNKDVIEETARGRGKRDSSNGHWLFPGTALKIPGT”, the “soluble fraction (log2)” value came to 0.421. Turning to “HMGGGFLVPSLVGKSLEEARSLSELRGFKLEVGDYVISSEYPAGRVTRQNPANGAKGQEGDVIKVEVSS”, the “soluble fraction (log2)” value was -0.00395. As for “HMGGGRELGLDPETGKKISVRLGKFGPFVQLGESGEEDKPVFANLGKNQSIATLSLEEAIALLARPK”, the figure is 0.187. For the sequence “HMGGGVSSSLAGNVFKVLLPAGSVVEQGQAVIVLEAMKMETEVNAPKSGSVSSVFVNEGDTVEVGDLLFAI”, the “soluble fraction (log2)” value is -0.0461. With “HMGGKWKAIIIYHLKNGPKRFGELRRALISSTETVLSNQLKQLEQDGLVSRQVFGTKPPLKTVYSLTDFG”, the “soluble fraction (log2)” value is -3.3. Turning to “HMGGKWKLRILLALENSAQDALRYGEIKNIVSGITDMMLSQSLRELTADGLIERRQYQEIPPKVEYRLS”, the “soluble fraction (log2)” value is -2.31.

As to “HMGGKWKPIILYYININSVARYSELKRFIPSINERMLTRQLRELEEDNLIERKVYPIVPPKVEYRLTEYGK”, the “soluble fraction (log2)” value is -0.179.

For “HMGGKWSMPIIYILSKGKMRFKELERSVEGINTRMLVKELKNMEANGIVTREVFPTVPPTVEYALT”, the “soluble fraction (log2)” value is -0.968. As to “HMGGKYKGVIIGHLIDKTLRYNELQKLISHATPKMLIQQLKELEADGIIQRKLYPVVPPKTEYSLTERG”, the “soluble fraction (log2)” value was -0.973. For the sequence “HMGGLAEGTKITLQNTVNVRASMGEDAEKIGTAYAGEKVTVIMSYAEGWTKVTWNDKTGYIKTSLL”, the “soluble fraction (log2)” value was -1.5. Turning to “HMGGLAHPASGEEMEHLFAHLEGELLKSGFLFPPDKAAGMMRNIRAMLTRADFTDQEVRTLRGMIVALSRG”, the “soluble fraction (log2)” value is -1.62. Take “HMGGNDALEIAKSNPQVIEVLGEPVTKDGMGSYSVNYKNGHKTSEATIPIEGPNGTATLHVKTSGSDDAL”: the “soluble fraction (log2)” value came to 0.237. Then “HMGGNKILTWKTDAATTRNQVPINERKEGLEISYKNEERNWVAEKYVGTSFSDDKWGVDYNWNQD”, with 0.951; and “HMGGPAGPDFTYTGDDLTRIDYDDGSYKVFTYDAGKLSQIDFTSGGTTTRKTFVYSGDTLIRVDQTI”, with -0.179.
